Results published in US20250281611A1 (BIOSCEPTRE AUST, published 2025).

B1: CD33 BRIDGE variant B4 (Fab)
light: GHNYTTRNILPGLNITSTFHKTSGSGKEPKSSDKTHTDIQMTQSPSSLSASVGDRVTITCRASESVDNYGISFMNWFQQKPGKAPKLLIYAASNQGSGVPSRFSGSGSGTDFTLTISSLQPDDFATYYCQQSKEVPWTFGQGTKVEIKRTVAAPSVFIFPPSDEQLKSGTASVVCLLNNFYPREAKVQWKVDNALQSGNSQESVTEQDSKDSTYSLSSTLTLSKADYEKHKVYACEVTHQGLSSPVTKSFNRGECHHHHHH
heavy: QVQLVQSGAEVKKPGSSVKVSCKASGYTFTDYNMHWVRQAPGQGLEWIGYIYPYNGGTGYNQKFKSKATITADESTNTAYMELSSLRSEDTAVYYCARGRPAMDYWGQGTLVTVSSASTKGPSVFPLAPSSKSTSGGTAALGCLVKDYFPEPVTVSWNSGALTSGVHTFPAVLQSSGLYSLSSVVTVPSSSLGTQTYICNVNHKPSNTKVDKKVEPKSCHHHHHH
notes: Lintuzumab-based Fab bridging molecule
B2: CD33 BRIDGE variant B5 (Fab)
light: GHNYTTRNILPGLNITSTFHKTSGSGKGSEPKSSDKTHTDIQMTQSPSSLSASVGDRVTITCRASESVDNYGISFMNWFQQKPGKAPKLLIYAASNQGSGVPSRFSGSGSGTDFTLTISSLQPDDFATYYCQQSKEVPWTFGQGTKVEIKRTVAAPSVFIFPPSDEQLKSGTASVVCLLNNFYPREAKVQWKVDNALQSGNSQESVTEQDSKDSTYSLSSTLTLSKADYEKHKVYACEVTHQGLSSPVTKSFNRGECHHHHHH
heavy: B1 heavy
notes: as for B1
B3: CD33 BRIDGE variant B10 (Fab)
light: GHNYTTRNILPGLNITSTFHKTSGSGKEPKSSDKTHTGSDIQMTQSPSSLSASVGDRVTITCRASESVDNYGISFMNWFQQKPGKAPKLLIYAASNQGSGVPSRFSGSGSGTDFTLTISSLQPDDFATYYCQQSKEVPWTFGQGTKVEIKRTVAAPSVFIFPPSDEQLKSGTASVVCLLNNFYPREAKVQWKVDNALQSGNSQESVTEQDSKDSTYSLSSTLTLSKADYEKHKVYACEVTHQGLSSPVTKSFNRGECHHHHHH
heavy: B1 heavy
notes: as for B1
B4: CD33 BRIDGE variant B1 (Fab, V domains shown)
VH: QVQLVQSGAEVKKPGSSVKVSCKASGYTFTDYNMHWVRQAPGQGLEWIGYIYPYNGGTGYNQKFKSKATITADESTNTAYMELSSLRSEDTAVYYCARGRPAMDYWGQGTLVTVSS
VL: DIQMTQSPSSLSASVGDRVTITCRASESVDNYGISFMNWFQQKPGKAPKLLIYAASNQGSGVPSRFSGSGSGTDFTLTISSLQPDDFATYYCQQSKEVPWTFGQGTKVEIKR
notes: as for B1
B5: CD33 BRIDGE variant B3 (Fab, V domains shown)
VH: B4 VH
VL: B4 VL
notes: as for B1
B6: CD33 BRIDGE variant B2 (Fab, V domains shown)
VH: B4 VH
VL: B4 VL
notes: as for B1
B7: CD33 BRIDGE variant B7 (Fab, V domains shown)
VH: B4 VH
VL: B4 VL
notes: as for B1

Target: T1, nfP2X7 CAR 1
T1 construct: Expressed on T cells with truncated EGFR as marker gene; also called anti-nfP2X7 receptor CAR 1; nfP2X7 targeted CAR on EGFR+ T cells
Test: flow cytometry, CAR T cells, anti-His-FITC, EGFR+ MFI over background 0.4
Description: (§1) nfP2X₇ CAR T cells were incubated with different BRiDGE variants at saturating concentrations. […] The MFI intensity correlates with the number of secondary bound antibodies bound to the BRiDGEs that are only detected if they are bound to the CAR T cells. EGFR was used as a marker gene to detect the CAR expression. Thus, the EGFR+ T cell population was defined as the CAR expressing cells and the EGFR− T cell population was defined as the CAR negative subset. MFI: median fluorescence intensity. EGFR: epidermal growth factor receptor. BLItz: Bio-Layer interferometry (BLI) technology using HIS-tag identification tips. HIS-tag MFI Ratio: relative index that is calculated by the testing condition MFI divided by the control MFI, which corresponds to the MFI measured on EGFR+ T cells (defined as CAR positive cells) divided by the MFI measured on the EGFR− T cells (defined as CAR negative cells). […] The higher the MFIR, the stronger the binding.

| HisTag MFI Ratio (background 0.4) | Binder |
| --- | --- |
| 4.2 | B1 |
| 3.5 | B2 |
| 5 | B3 |
| 2.7 | B4 |
| 2.6 | B5 |
| 2.8 | B6 |
| 3.6 | B7 |

Target: T2, CD33 (UniProt P20138 18-364, limits assumed)
T2 construct: whole, on cells; also called Siglec-3; CD33 on MOLM-13 cells
Test: flow cytometry, MOLM-13 cells, anti-His-FITC detection
Description: (§2) MOLM-13 cells were incubated with different CD33 BRIDGE variants at saturating concentrations. […] The MFI intensity correlates with the number of secondary antibodies bound to the CD33 BRIDGE variants that are only detected if they are bound to the MOLM-13 cells. MFI: median fluorescence intensity. BLItz: Bio-Layer interferometry (BLI) technology using HIS-tag identification tips. […] The higher the MFIR, the stronger the binding.

T2 sequence (P20138 18-364 limits assumed): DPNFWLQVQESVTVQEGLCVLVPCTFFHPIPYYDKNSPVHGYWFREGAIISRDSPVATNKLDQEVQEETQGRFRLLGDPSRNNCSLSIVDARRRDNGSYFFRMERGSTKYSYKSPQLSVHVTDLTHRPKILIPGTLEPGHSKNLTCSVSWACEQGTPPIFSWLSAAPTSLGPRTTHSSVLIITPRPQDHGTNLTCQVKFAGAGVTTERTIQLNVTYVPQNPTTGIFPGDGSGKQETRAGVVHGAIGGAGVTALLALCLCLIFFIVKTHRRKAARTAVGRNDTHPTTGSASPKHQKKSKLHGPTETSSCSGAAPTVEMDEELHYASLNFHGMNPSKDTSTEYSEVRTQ

| MFI HisTag FITC | Binder |
| --- | --- |
| 5.53 | B1 |
| 5.86 | B2 |
| 6.86 | B3 |
| 6.11 | B4 |
| 6.76 | B5 |
| 5.59 | B6 |
| 5.52 | B7 |

Target: T2, CD33
Test: flow cytometry, MOLM-13 cells, anti-His-FITC detection, ratio to no bridge
Description: as §2

| MFIR HisTag FITC | Binder |
| --- | --- |
| 8.25 | B1 |
| 8.75 | B2 |
| 10.2 | B3 |
| 9.12 | B4 |
| 10.1 | B5 |
| 8.34 | B6 |
| 8.24 | B7 |

Target: T1, nfP2X7 CAR 1
Test: flow cytometry, nfP2X7 CAR T cells (EGFR+), anti-His-FITC detection
Description: as §1

| MFI HisTag FITC in EGFR+ Population | Binder |
| --- | --- |
| 1.68 | B1 |
| 1.4 | B2 |
| 1.99 | B3 |
| 1.08 | B4 |
| 1.04 | B5 |
| 1.11 | B6 |
| 1.45 | B7 |

Target: T1, nfP2X7 CAR 1
Test: flow cytometry, CAR T cells, anti-His-FITC, EGFR+ over EGFR- cells
Description: as §1

| HisTag MFI Ratio of EGFR+/EGFR- | Binder |
| --- | --- |
| 3.1 | B1 |
| 2.8 | B2 |
| 3.5 | B3 |
| 2.5 | B4 |
| 2.4 | B5 |
| 2.5 | B6 |
| 3 | B7 |
